Drawing on article PMC12002099, “Recombinant Production and Characterization of Six Ene‐reductases from Penicillium steckii” (Chembiochem, 2025), this text covers Km, kcat and kcat/Km for 3 proteins.

Holding throughout (test): steady-state kinetics, NADPH consumption, Michaelis-Menten fit
What all share (format): biochemical, Penicillium steckii

Substrate in data set [1]: NC(=O)C1=CN([C@@H]2O[C@H](COP(=O)(O)OP(=O)(O)OC[C@H]3O[C@@H](n4cnc5c(N)ncnc54)[C@H](OP(=O)(O)O)[C@@H]3O)[C@@H](O)[C@H]2O)C=CC1
To be noted: co-substrate p-benzoquinone. The text has this: (§1) steady-state kinetics, NADPH consumption, Michaelis-Menten fit on PsOYE5

Substrate in data set [2]: O=C1C=CC(=O)C=C1
To be noted: co-substrate NADPH.
Text: as §1

Substrate in data set [3]: NC(=O)C1=CN([C@@H]2O[C@H](COP(=O)(O)OP(=O)(O)OC[C@H]3O[C@@H](n4cnc5c(N)ncnc54)[C@H](OP(=O)(O)O)[C@@H]3O)[C@@H](O)[C@H]2O)C=CC1
The following applies: co-substrate p-benzoquinone. The text has this: (§2) steady-state kinetics, NADPH consumption, Michaelis-Menten fit on PsOYE1
The source holds these as a separate data set.

Substrate in data set [4]: O=C1C=CC(=O)C=C1
To be noted: co-substrate NADPH.
Text: as §2
This is another data set of the same source.

Substrate in data set [5]: NC(=O)C1=CN([C@@H]2O[C@H](COP(=O)(O)OP(=O)(O)OC[C@H]3O[C@@H](n4cnc5c(N)ncnc54)[C@H](OP(=O)(O)O)[C@@H]3O)[C@@H](O)[C@H]2O)C=CC1
To be noted: co-substrate p-benzoquinone. An excerpt:
(§3) steady-state kinetics, NADPH consumption, Michaelis-Menten fit on PsOYE6
This is another data set of the same source.

Substrate in data set [6]: O=C1C=CC(=O)C=C1
The following applies: co-substrate NADPH.
Text: as §3
This is another data set of the same source.

B1: PsOYE5 (Penicillium steckii) (protein)
chain: MSSSAATRFECADVDPSVLGQPLQFTFSGRSAPNRFLKGAMSERLASFSYSDLSARGIPSPTLIQAYKGWGESQIGINLTGNVMIDPGHLEAAGNPVIPRNAEFSGERFERFKELATAGKENGMLIIAQVGHPGRQTPQYLQPNPISASDVQVQGEPMGMKFAQPRAATHEDIANIIDGFAHAAEYLDKAGFDGIELHGAHGYLLSQFLSSATNLRTDQYGGDLKNRMRLILEVRDEIAKRVRKDFVVGIKINSVEFQDKGFQPDDAKELCRALEEHAFDFVELSGGTYEKSPFAEQKRPSTIERESLFLDFARLIVPGLTKTKTYVTGGFKTVEAMVKALETVDGVGLGRPLCQEPNLCAHILSGKVKGAIDQKIDMYNFGATAGAAGVQIQQMGNHLQPIDLSQEENVGKLFAALGPWLAARQKDVELYRSPAVADYVVPYSKTSML
Regarding B1, in data set [1], the Km was determined as 500 ± 200 µM, the kcat worked out at 70 ± 14 s⁻¹ and the kcat/Km turned out to be 150000 M⁻¹ s⁻¹. In addition, in data set [2], the Km was found to be 900 ± 100 µM, the kcat stood at 23.2 ± 0.9 s⁻¹ and the kcat/Km came to 26000 M⁻¹ s⁻¹.

B2: PsOYE1 (Penicillium steckii) (protein)
chain: MTIQYISGEESGLFRPLTISNGSLTLRHRIIHAPLTRNRGVPANPISTPENPNRIWVPGDLIAEYYGQRATEGGLLISEGIPPSLESNGMPGVPGLFTPEQANGWKKVVDAVHAKGGFIFCQLWHAGRATIPQMTGSPAVCPSASVWDSPKECYSHPPVGSTEPVPYANHPPIELSVPHIKQTIQDYCNAAKTAMEIGFDGVEIHGGNGYLPEQFLSSNINKRTDDYGGSPEKRCKFVFELMDEVAKTIGEQNLSIRLSPFGLFNQARGEQRLETWTHLCEGLKKAHPALSYVSFVEPRFEQIFSEEEKDTFLQSWGLKDVTLDRFRKIFGETPFFSAGGFDDKNSWNIVESGKYDGLLFGRYFISNPDLVHRLAKGLPLAPYDRTRFYGPFEDNVFHYTDYPTIDKQ
For the protein B2, in data set [3], the Km stood at 300 ± 100 µM, the kcat stood at 63 ± 8 s⁻¹ and the kcat/Km worked out at 200000 M⁻¹ s⁻¹. In data set [4], the Km turned out to be 700 ± 100 µM, the kcat was determined as 23.4 ± 1 s⁻¹ and the specificity constant (kcat/Km) was found to be 33000 M⁻¹ s⁻¹.

B3: PsOYE6 (Penicillium steckii) (protein)
chain: MSSKLFNPMQVGRMQLSTRLAMAPMTRFRVDDDHNPLPIVKDYYAQRGSIPGTLLITEATIISPQAGGYKNVPGIYTDSQIAAWKEITDAVHAKGSYIYLQLWALGRVADPNYLRELGNYDLVSASDIPAGEGAPTPRPLSESDIQSFVKDYAQAAKNAVAAGFDGVEIHAANGYLIDQFIQDNSNQRNDSYGGSVENRARFALEVTQAVVDAIGADRTGIRYSPFSTFQGMRMADPIPQFSYLAKETAKFKLAFTHLVEPRIAGNADVEETPDELEFFLKEYGNATPVIIAGGYKAESAIQAVDEKYKEFDTVIGIGRPWTSNPDLPFRIKANVPLVPYDRDTFYNPKDPKGYIDWAFSPEFKATQVGA
For the protein B3, in data set [5], the Km was 300 ± 100 µM, the kcat amounted to 53 ± 7 s⁻¹ and the kcat/Km turned out to be 170000 M⁻¹ s⁻¹. Also, in data set [6], the Km stood at 1100 ± 100 µM, the kcat came to 25.5 ± 0.9 s⁻¹ and the catalytic efficiency (kcat/Km) stood at 23000 M⁻¹ s⁻¹.
